Laboratory results as given in doi:10.1101/2023.03.10.531533 (bioRxiv, 2023).

What was measured:
[1] = biological target: recombinant SARS-CoV-2 S-6P spike protein (SARS-CoV-2 Wuhan, UniProt P0DTC2, stabilised); assay: ELISA
[2] = biological target: recombinant prefusion stabilized SARS-CoV-2 spike protein (S-2P) (SARS-CoV-2 Wuhan, UniProt P0DTC2, stabilised); assay: HDX-MS
[3] = biological target: SARS-CoV-2 Wuhan spike protein on HEK293T cells (SARS-CoV-2 Wuhan, UniProt P0DTC2); assay: flow cytometry on cells

Measured: binding result

B1: VHH R3DC23 (VHH)
VHH: QVQLQESGGGLVQAGDSLTLSCAVSGRIFSTYTMGWFRQAPGKEREFVAAVRWGAGTIYYADSMKGRFTISRDSAKNTVDLQMNSTKPEDTAVYYCGAAYVSKANYGSLWYQDSRRYDYWGQGTQVTVSS
binds: all assays above
